Experiment [1] addresses HyNaC2/3/7 (Hydra magnipapillata).
In experiment [2] the target is HyNaC2/3/6 (Hydra magnipapillata).
Experiment [3] deals with HyNaC2/3/5 (Hydra magnipapillata).
Experiment [4] has as its target HyNaC2/10/7 (Hydra magnipapillata).
Experiment [5] deals with HyNaC2/4/6 (Hydra magnipapillata).
In experiment [6] the target is HyNaC2/9/7 (Hydra magnipapillata).
Experiment [7] has as its target HyNaC2/11/5 (Hydra magnipapillata).

The values that follow come from publication PMC4212090, “The comprehensive analysis of DEG/ENaC subunits in Hydra reveals a large variety of peptide-gated channels, potentially involved in neuromuscular transmission” (BMC Biology, 2014).

As to Hydra-RFamide I (peptide), the EC50 of current activation by Hydra-RFamide I (two-electrode voltage clamp, Xenopus oocytes injected with EGTA) in experiment [1] worked out at 0.19 µM; in experiment [2], 0.29 µM; in experiment [3], 3.48 µM; in experiment [5] it was 0.7 µM; in experiment [6], 0.04 µM; in experiment [7], 13.8 µM. The EC50 of current activation by Hydra-RFamide I (two-electrode voltage clamp, Xenopus oocytes injected with EGTA); saturation not reached in experiment [4] is above 30 µM.
